Target: Smac/DIABLO, endogenous (human (endogenous in HEK293F and HEK293T))
Assay: cryo-EM structure; FLAG-BIRC6 purified from HEK293F, cross-linked with 0.01% glutaraldehyde; global map 3.6 Å; a class with endogenous co-purified Smac in the central cavity at 4.7 Å

stoichiometry N: 2
Substance: Smac/DIABLO, endogenous (natural protein)
